According to article PMC9980222:

Tests used:
[1] = target: BG505 SOSIP.664-His trimer (HIV-1 isolate BG505 (Clade A))
[2] = target: BG505 SOSIP.664-His trimer (HIV-1 isolate BG505 (Clade A)); experiment: SPR
[3] = target: B41 SOSIP.664-His trimer (HIV-1 isolate B41 (Clade B)); experiment: negative-stain electron microscopy
[4] = target: B41 SOSIP.664-His trimer (HIV-1 isolate B41 (Clade B)); experiment: native gel or EMSA

Q: For PGT151 IgG (antibody), which IC50 of neutralization of BG505 Env-pseudotyped virus, TZM-bl assay [1] is on record?
A: The IC50 of neutralization of BG505 Env-pseudotyped virus, TZM-bl assay was 0.043 µg/mL.

Q: For PGT151 Fab, which KD1 (site 1, heterogeneous-ligand model) [2] is on record?
A: The KD1 (site 1, heterogeneous-ligand model) was less than 0.1 nM.

Q: What about the KD2 (site 2, heterogeneous-ligand model) [2] of the same substance?
A: Its KD2 (site 2, heterogeneous-ligand model) is 27 nM.

Q: What about the Kd [2] of the same substance?
A: The Kd was 2 nM.

Q: What about the Sm1 (stoichiometry of site 1, heterogeneous-ligand model) (Fab molecules per trimer) [2] of the same substance?
A: The Sm1 (stoichiometry of site 1, heterogeneous-ligand model) (Fab molecules per trimer) was 1.2.

Q: And the Sm1+Sm2 (cumulative stoichiometry, heterogeneous-ligand model) (Fab molecules per trimer) [2]?
A: The Sm1+Sm2 (cumulative stoichiometry, heterogeneous-ligand model) (Fab molecules per trimer) was 1.9.

Q: What about the Sm2 (stoichiometry of site 2, heterogeneous-ligand model) (Fab molecules per trimer) [2] of the same substance?
A: Its Sm2 (stoichiometry of site 2, heterogeneous-ligand model) (Fab molecules per trimer) is 0.7.

Q: What about the koff [2] of the same substance?
A: The koff was 0.00018 s⁻¹.

Q: What about the koff1 (site 1, heterogeneous-ligand model) [2] of the same substance?
A: Its koff1 (site 1, heterogeneous-ligand model) is less than 1e-05 s⁻¹.

Q: And the koff2 (site 2, heterogeneous-ligand model) [2]?
A: The koff2 (site 2, heterogeneous-ligand model) was 0.00076 s⁻¹.

Q: And the kon [2]?
A: The kon was 87000 M⁻¹ s⁻¹.

Q: And the kon1 (site 1, heterogeneous-ligand model) [2]?
A: Its kon1 (site 1, heterogeneous-ligand model) is 140000 M⁻¹ s⁻¹.

Q: What about the kon2 (site 2, heterogeneous-ligand model) [2] of the same substance?
A: The kon2 (site 2, heterogeneous-ligand model) was 28000 M⁻¹ s⁻¹.

Q: What about the stoichiometry N (Fab molecules per trimer) [2] of the same substance?
A: The stoichiometry N (Fab molecules per trimer) was 1.9.

Q: With B41 SOSIP.664-His trimer (complex) as the substance, how does the stoichiometry N [3] read?
A: Its stoichiometry N is 3.

Q: And the stoichiometry N [4]?
A: The stoichiometry N was 3.
